Data as given in the DeepSol protein solubility set.

Experiment: soluble on expression in E. coli; label from the status in PepcDB or PDB records

Q: Which “soluble on expression in E. coli” value does the source give for “VSIDVPERADLEQVRGRWRNAVAGVLSKSNRTDSAQLGDHPERLLDTQTADGFAIRALYTAFDELPEPPLPGQWPFVRGGDPLRDVHSGWKVAEAFPANGATADTNAAVLAALGEGVSALLIRVGESGVAPDRLTALLSGVYLNLAPVILDAGADYRPACDVMLALVAQLDPGQRDTLSIDLGADPLTASLRDRPAPPIEEVVAVASRAAGERGLRAITVDGPAFHNLGATAATELAATVAAAVAYLRVLTESGLVVSDALRQISFRLAADDDQFMTLAKMRALRQLWARVAEVVGDPGGGAAVVHAETSLPMMTQRDPWVNMLRCTLAAFGAGVGGADTVLVHPFDVAIPGGFPGTAAGFARRIARNTQLLLLEESHVGRVLDPAGGSWFVEELTDRLARRAWQRFQAIEARGGFVEAHDFLAGQIAECAARRADDIAHRRLAITGVNEYPNLGEPALPPGDPTSPVRRYAAGFEALRDRSDHHLARTGARPRVLLLPLGPLAEHNIRTTFATNLLASGGIEAIDPGTVDAGTVGNAVADAGSPSVAVICGTDARYRDEVADIVQAARAAGVSRVYLAGPEKALGDAAHRPDEFLTAKINVVQALSNLLTRLGA” here?
A: Its value is “not soluble”.

Q: With “MGSDKIHHHHHHMNEIFVFHGQEVRTVTINNEPWFVGKDVADILGYSKSRNAIALHVDEDDALKQGITDNLGRMQETIIINESGLYSLILSSKLPQVKEFKRWVTSEVLPQIRQQGAYVPENLSDEAFIALFTGQKKLKEHQLALAQDVDYLKNEQPIHPSFAQALLKKRKARVVSCLGGMDSPAYADKVFAQSVFRQAEVDFKDHFNINRYDMLPKKFAEAALSYWMTWEPSTNTKMKILEMNAYEL” as the sequence, how does the “soluble on expression in E. coli” value read?
A: The value was “not soluble”.

Q: For “MMLITERRSPFYPNIQNVPPSVIRKLVKNKAITLIDVRQPWEYEDHHIPGSILLPLDYFKELFPLVLSKNNLVKNGVAIICEHANRSTWLVYTEPSLFKEVKVYNMLGGIELWMIMGYEIEKGMDDNGTLWYKLLTKNLGLEHHHHHH”, which “soluble on expression in E. coli” value is on record?
A: Its value is “not soluble”.

Q: Which “soluble on expression in E. coli” value does the source give for “MGSDKIHHHHHHMSIRIGNAPCSWGVEFADDPRNPTWRSVLKDCAEAGYKGIELGPVGFMPEDPVELGEALAEHDLDLIGGVVFRAYHDPAAWEDVVDATHRTARALRAHGAQHLVLIDSISPRRAPTAGRAAEAEQMDKAEWTAYRNRIAESARIGAEEYGLTVGIHAHAAGFMDFEPELERLLSEVDESLLKICFDTGHHSYAGFDPVAFMKRHVGRISYMHFKDIDPKVKAEVIANRTGFYEACGQGIFCNLGLGDVDFPAVRQVLLEAGFAGWCTVEQDCDPTLDPDPVGDALKNREYLETIGFN” here?
A: Its value is “not soluble”.

Q: With “MNSLDSQITALYTLAHELLYLGSDGSPIYSDHFSRLNGDVLSRANTLYPHHGSTDEEEARLCLSLLMGYNATIYNNGDKEVRIQQILNRCWEVLDRLPASLLKVRLLTYCYG” as the sequence, how does the “soluble on expression in E. coli” value read?
A: The value was “not soluble”.

Q: For “MMIMNNFDEKKLIQEFSKIQSELSPRIKLENNFQIEEIQFIAGVDLAYWNVNKTKYGTCCIVIIDYGTKEVVEKVYSYGEIPIPYIPGFLAFRELPLIIEAVKKLTKQPDIYFFDGNGYLHYRHMGIATHASFLLNKPTIGVAKSYLKIRDVDFIMPENLKGSYTDIVINNEVYGRTLRTTKNVKPIFVSCGNWIDLDTSTEIVMNCINNESRLPIPVRLADLETHKMRKKLMEGLEHHHHHH”, which “soluble on expression in E. coli” value is on record?
A: Its value is “not soluble”.

Q: For “MVTLCHVFGVHRSSYRYWKNRPEKPDGRRAVLRSQVLELHGISHGSAGARSIATMATRRGYQMGRWLAGRLMKELGLVSCQQPTHRYKRGGHEHVAIPNYLERQFAVTEPNQVWCGDVTYIWTGKRWAYLAVVLDLFARKPVGWAMSFSPDSRLTMKALEMAWETRGKPGGVMFHSDQGSHYTSRQFRQLLWRYQIRQSMSRRGNCWDNSPMERFFRSLKNEWMPVVGYVSFSKAAHAITDYIVGYYSALRPHEYNGGLPPNESENRYWKNSNSVASFC”, which “soluble on expression in E. coli” value is on record?
A: The value was “not soluble”.

Q: Which “soluble on expression in E. coli” value does the source give for “MGHYRGTWLEIGRMPMLLTDGCVAGYSTYRQGKSADEVLVEDGCREGTPQGKLKTINGVGKIEDFASTKAKMRVRYPLLITFNYWVLYKSPDKSWFISANPSTEDVWVYARSVPSKAKLNRMMMKVRELGYDVKKLEFPLEHHHHHH” here?
A: The value was “soluble”.

Q: With “STNVFIMGHVNPDIDCIGGAIGLYSVLSSKVDGDVHIVLDDTSSSVEGIVNRLVENYDEYKNVFMRSSDCIELIDQGSILILDDVNSRNYVLSEKILEEISKVVVIDHHRRAANYIKDTILSYIESYASSTSELVTEMIQYMDENHKLKPIEAEALLAGIVVDTKNFSFKTGVRTFEAAAFLRKNGADTIEIKKLFSNDL” as the sequence, how does the “soluble on expression in E. coli” value read?
A: The value was “not soluble”.

Q: Which “soluble on expression in E. coli” value does the source give for “MGSDKIHHHHHHMFSMTKDWREQRILDSSEFTHADWLQAAQRIVILGRLNEDELTRLFELATLFLADKSITGAQGFEITDAVKQSIALQACLPILNLSLEWYAGWSAIIIYPGSYKSETTTVDELGIVHEGSQHRSGEAWLRGPVILSWKDAKHSGERDGHNVVIHEFVHKLDMLNGRANGFPPLQPDMDPVRWTEIMTRDFEDFQSHHKSGFDRYGATNPAEFFAVLSEVFFETPQKLIDAYPDIYEIMVKFFRQTPLEPRP” here?
A: The value was “not soluble”.

Q: Which “soluble on expression in E. coli” value does the source give for “MGSDKIHHHHHHMSAIPQAARKRGRPVKGESATLRDELILKSAKLFRTQGYERTTVRDIAAAAGVQAGSWFYYFKTKQDILVAVMEQGMSNALARIEALDVEHLPARDAFRALVHTHLHTLVSPDHDFIPVLLYEWKSLDEAMQAKVLKLKDRYEAVWDGVIERLQAAGEWPAPTPIDRLLMFGALNWVAQWYKPDGALGLDALAEHAVRFLLRTAETPAPAPAGTAKRRRGVKAS” here?
A: Its value is “not soluble”.

Q: Which “soluble on expression in E. coli” value does the source give for “MGSDKIHHHHHHMLDLGCGDGTLLHYLRDKLDIHGYGVEIDAHNILACMKNGINVIQNDLEAGLSEFEGESFDYVILSQTLQAMKNTEYIIREMLRVGKEGIVSFPNFGYWKNRIQVAGGHMPVSPTLPYQWYDTPNVHLCTLHDFEQLCQQHRVNILERRVMNNDKKVTFLPNLFGILAFYRFSHAA” here?
A: Its value is “not soluble”.

Q: With “MSSSVLSVAKFDLKKMKTVYLKVDMEYDNRKNAALAILSKLSRDLLKICSNFGGCLARPQRDLCTIMLIIDSDKLENEHLVKHLKEHHMTAFEYIFTKKIKIQIGECFVQDGFLWWKQTNLPRIRNLKFRKKFKIKNKISEIHTHCSSEGNVYIKFSAEMIRIHPFDHWILDSDERFHDFNSGPISRRIRPRWVSCLPKLGKGRIVKIHRKIPETAPFESYDQMKSYWKKTKYEFVFQYGYDLPPSEPEVYYDVLFHNGETMLYPLYCVLTGTPEVLENRVGKTMTSEALALFLKAFKEASIVICGSVLAPEDQDCQAVKAYLDVMSMSAINSSKLKKEEKVTRKSSGGGHEEHQKPYEIRKIYPKIPVGVKRSISSSSQSGLPIVKKARPGFSVSVD” as the sequence, how does the “soluble on expression in E. coli” value read?
A: The value was “not soluble”.

Q: With “MRCLALDIGGTKIAAAIVKNGEIEQRQQIHTPRENVVEGMHQALGKLLADYEGQFDYVAVASTGIINNGILSALNPKNLGGLAEFPLKASIAKHTDKPIGLLNDAQAATYAEYQLQNSEQVSNFVFITVSTGVGGGIVLNQILQTGSRGIAGHIGHTLADPNGAICGCGRRGCVEAIASGRAIEAVSSQWEEPCDPKEVFERFRKNDEKATALVERSAKAIANLIADLVISLDIQKIAIGGSVGLAEGYLSLVEKYLQDFPSIYCCEIETAKFGQDAGLIGAAYWVKDVLLDKPEGTIYGLEHHHHHH” as the sequence, how does the “soluble on expression in E. coli” value read?
A: Its value is “soluble”.

Q: With “MGSDKIHHHHHHMNFPELKLSQTERDFNFDFAILEHDLSYFFEKRCLDYALEHINRFNHKIKDNLYNVRPLILKEALISLTCDLASVSFYHYLNMITFVNLRKDILHYLTTTTLTNDDFMPLLESIVNNYFSNLDTLDIPIDGTRLSKQVALVVYYIDNHCDEPLRANTILEELTLDPEYTKRKFRKELGFTINFYIRHAKLQRAKQLLINTHLPIGEIAERINFYNSAEFARQFQKEFDITPSKYRELNQIFYKEE” as the sequence, how does the “soluble on expression in E. coli” value read?
A: Its value is “not soluble”.

Q: For “MVLVLAEIITVGDELLTGNTVDSNSAYIAQRLTEKGFWVRRITTVGDDVKEIENAVREAISRKPEVLIISGGLGPTHDDVTMLGVANAIGRKLKLCEDCLERIKEFYEELHRKGLIDDPTLNEARKKMAYLPEGSEPLNNTEGAAPGAYVEYEGVKIFILPGMPREMKAMLESEVLPRLGERKFVQKKFLAEITDESKLAPILEDTIERFKVKIHSSPKGFGKYIGIIIFAEDDEVIGKVIRYIEGKGIKFREGW”, which “soluble on expression in E. coli” value is on record?
A: Its value is “soluble”.

Q: Which “soluble on expression in E. coli” value does the source give for “MELKKFELKTVELPILKPGTLRGKKEFRLLHISDLHMIPGQETKKAWVSALDSLSPDLVINTGDNLSDEKAVPDVLRALGPLMNRPGAFVFGTNDYWAPRPVNPFGYLFGKKREVSHIDLPWRAMRAAFIEHGWQDANQKRLEFQVGSVRLAISGVDDPHHDLDDYTEIAGAPNVDADLSIALLHAPEPRVLAQFEADGYQLSLSGHTHGGQLEHHHHHH” here?
A: Its value is “not soluble”.

Q: With “SSNNFNYGAYHSLEAIYHEMDNIAADFPDLARRVKIGHSFENRPMYVLKFSTGKGVRRPAVWLNAGIHSREWISQATAIWTARKIVSDYQRDPAITSILEKMDIFLLPVANPDGYVYTQTQNRLWRKTRSRNPGSSCIGADPNRNWNASFAGKGASDNPCSEVYHGPHANSEVEVKSVVDFIQKHGNFKGFIDLHSYSQLLMYPYGYSVKKAPDAEELDKVARLAAKALASVSGTEYQVGPTCTTVYPASGSSIDWAYDNGIKFAFTFELRDTGTYGFLLPANQIIPTAEETWLGLKTIMEHVRDNLY” as the sequence, how does the “soluble on expression in E. coli” value read?
A: The value was “soluble”.

Q: For “MAGTRDYDHLFKLLIIGDSGVGKSSLLLRFADNTFSENYITTIGVDFKIRTMDINGQRVKLQIWDTAGQERFRTITSTYYRGTHGVVVVYDVTNGESFGNVKRWLQEIENNCDSVQKVLVGNKCEENERRVVLESDARNYAQSMNISFFETSAKEDKNVEPMFTCITSLVLTAKLANPQSASKDQSRTGGVSLKDNSGSTNQKKKCKCG”, which “soluble on expression in E. coli” value is on record?
A: The value was “not soluble”.

Q: For “SLDITFIDETEKVPTEEIKEIENLLQFAAGFLEIAEDTEMSVTFTDNAGIQMINRDYRGKDMPTDVISFALEDEGEDELPIIFDDEELAELPRNLGDLIISTERAAEQAVEYGHTLEREMGFLAVHGFLHLNGYDHMEPEDEKEMFGLQKEILDAYGLKR”, which “soluble on expression in E. coli” value is on record?
A: Its value is “soluble”.

Q: Which “soluble on expression in E. coli” value does the source give for “MAHHHHHHMRRFCTARVSSYVKRAPLLLPRGGRRWRSGAGTTADGGGEKEYIADSFESTAGSNAYAAMELAAEARREIHELWLSAETALEREKRVQQVAALIEKYKLDPSTPREADVSRGLGDAFDRLLLLCLPLGKTDAKGTDNLERLMHLAGRNGRELSVRTIQHLFARTDSFAEALAVFYTMRRCHVAMNMEAYYSMLYSLQRLEEEGWGQHFRNEYEENGAPSEQAMDFIVKGISNALLPENKPWLGRVMFQDRNVPDRRYDTRDFDELDTAWTQRYKSGTPAGAH” here?
A: Its value is “not soluble”.

Q: For “MGILNKILTAFRGGATEVGQSIVDANSTRIFEQEIRDAEKHLTNAKRELTDVMAKEMQASREVDRLKRSIAEHEGYVTQALDKGNEALAIEVAEKIAQLEQELAEQQTANDSFSAHALRLKDLVKKTERQLSDYQRQLSMVKTTESVQKATATITDSFASSNSKLLNAKDSLERIKARQQQFDDRLKAAETLAEEGSDKSLQAKLAEAGIGEQKSNANAVLERIKARKSLEHHHHHH”, which “soluble on expression in E. coli” value is on record?
A: The value was “not soluble”.

Q: With “MTIKVGINGFGRIGRIVFRAAQKRSDIEIVAINDLLDADYMAYMLKYDSTHGRFDGTVEVKDGHLIVNGKKIRVTAERDPANLKWDEVGVDVVAEATGLFLTDETARKHITAGAKKVVMTGPSKDNTPMFVKGANFDKYAGQDIVSNASCTTNCLAPLAKVINDNFGIIEGLMTTVHATTATQKTVDGPSHKDWRGGRGASQNIIPSSTGAAKAVGKVLPELNGKLTGMAFRVPTPNVSVVDLTVRLEKAATYEQIKAAVKAAAEGEMKGVLGYTEDDVVSTDFNGEVCTSVFDAKAGIALNDNFVKLVSWYDNETGYSNKVLDLIAHISK” as the sequence, how does the “soluble on expression in E. coli” value read?
A: Its value is “soluble”.

Q: With “GMKSLHRPDLYSWSTFNPARNIDFNGFAWIRPEGNILIDPVALSNHDWKHLESLGGVVWIVLTNSDHVRSAKEIADQTYTKIAGPVAEKENFPIYCDRWLSDGDELVPGLKVMELQGSKTPGELALLLEETTLITGDLVRAYRAGGLEILPDEKLMNKQKVVASVRRLAALEKVEAVLVGDGWSVFRDGRDRLKELVATLA” as the sequence, how does the “soluble on expression in E. coli” value read?
A: The value was “soluble”.
